# Test results as given in US20210196796A1 (SYNTHEKINE, published 2021).
# Substitutions are numbered along the chain they refer to. Numbers in names are those of the source.
# B1: Q126K, SQVLKA (ligand)
# chain: APTSSSTKKTQLQLSQLLVLLKAILNGINNYKNPKLTRMLTFKFYMPKKATELKHLQCLEEELKPLEEVLNLAQSKNFHLRPRDLISNINVIVLELKGSETTFMCEYADETATIVEFLNRWITFCKSIISTLT
# B2: Q126C, SQVLKA (ligand)
# chain: B1 chain with K126C
# B3: Q126D, SQVLKA (ligand)
# chain: B1 chain with K126D
# B4: L14W, SQVLKA (ligand)
# chain: B1 chain with L14W, K126Q
# B5: Q126E, SQVLKA (ligand)
# chain: B1 chain with K126E
# B6: Q126G, SQVLKA (ligand)
# chain: B1 chain with K126G
# B7: Q126I, SQVLKA (ligand)
# chain: B1 chain with K126I
# B8: Q126R, SQVLKA (ligand)
# chain: B1 chain with K126R
# B9: Q126S, SQVLKA (ligand)
# chain: B1 chain with K126S
# B10: Q126T, SQVLKA (ligand)
# chain: B1 chain with K126T
# B11: KQVLKA (ligand)
# chain: B1 chain with S15K, K126Q
# B12: TQVLKA (ligand)
# chain: B1 chain with S15T, K126Q
# B13: ΔH16, S_VLKA (ligand)
# chain: APTSSSTKKTQLQLSLLVLLKAILNGINNYKNPKLTRMLTFKFYMPKKATELKHLQCLEEELKPLEEVLNLAQSKNFHLRPRDLISNINVIVLELKGSETTFMCEYADETATIVEFLNRWITFCQSIISTLT
# B14: SNVLKA (ligand)
# chain: B1 chain with Q16N, K126Q
# Target: T1, orthogonal hCD122 receptor (hoRb), hCD122 with H133D and Y134F (human, UniProt P14784 27-550)
# T1 sequence: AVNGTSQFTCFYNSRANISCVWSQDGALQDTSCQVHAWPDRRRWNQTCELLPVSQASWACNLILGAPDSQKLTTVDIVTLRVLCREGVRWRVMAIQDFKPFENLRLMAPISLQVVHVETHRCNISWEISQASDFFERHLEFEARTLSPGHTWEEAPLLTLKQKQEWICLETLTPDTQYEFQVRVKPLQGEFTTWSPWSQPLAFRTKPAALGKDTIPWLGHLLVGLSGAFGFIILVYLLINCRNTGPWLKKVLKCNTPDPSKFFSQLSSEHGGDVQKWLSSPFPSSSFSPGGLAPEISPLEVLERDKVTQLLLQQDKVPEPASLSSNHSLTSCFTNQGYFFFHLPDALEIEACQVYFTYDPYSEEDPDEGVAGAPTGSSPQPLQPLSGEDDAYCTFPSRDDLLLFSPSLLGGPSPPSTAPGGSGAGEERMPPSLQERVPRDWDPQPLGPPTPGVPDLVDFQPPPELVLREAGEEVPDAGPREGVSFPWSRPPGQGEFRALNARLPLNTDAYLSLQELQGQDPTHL
# Test: cell-based or functional assay
# Throughout, for Relative Proliferation Fold Change 3F8 1:10: reference of the scale not given here.
# Throughout, for Relative Proliferation Fold Change 3F8 1:2: reference of the scale not given here.
# Throughout, for Relative Proliferation Fold Change 3F8 1:50: reference of the scale not given here.
# Throughout, for Relative Proliferation Fold Change NKL 1:10: reference of the scale not given here.
# Throughout, for Relative Proliferation Fold Change NKL 1:2: reference of the scale not given here.
# Throughout, for Relative Proliferation Fold Change NKL 1:50: reference of the scale not given here.
Binder,3F8 Ortho Proliferation Signal 1:2,3F8 Ortho Proliferation Signal 1:10,3F8 Ortho Proliferation Signal 1:50,Relative Proliferation Fold Change 3F8 1:2,Relative Proliferation Fold Change 3F8 1:10,Relative Proliferation Fold Change 3F8 1:50
B1,2720 cts/min,2490 cts/min,964 cts/min,9.18 fold,7.29 fold,1.51 fold
B2,452 cts/min,574 cts/min,748 cts/min,2.28 fold,0.68 fold,1.4 fold
B3,294 cts/min,368 cts/min,544 cts/min,0.63 fold,0.4 fold,0.61 fold
B4,35300 cts/min,36000 cts/min,13600 cts/min,66.2 fold,31.8 fold,16.5 fold
B5,21000 cts/min,14600 cts/min,2660 cts/min,129 fold,33.6 fold,6.4 fold
B6,1540 cts/min,1100 cts/min,838 cts/min,7.05 fold,2.14 fold,1.14 fold
B7,27400 cts/min,27000 cts/min,9510 cts/min,30 fold,11.3 fold,8.69 fold
B8,22400 cts/min,18100 cts/min,3710 cts/min,0.49 fold,1.44 fold,1.37 fold
B9,9540 cts/min,2870 cts/min,826 cts/min,19.3 fold,3.69 fold,1.6 fold
B10,3380 cts/min,1880 cts/min,1320 cts/min,0.28 fold,0.54 fold,1.92 fold
B11,35200 cts/min,36800 cts/min,24000 cts/min,4.86 fold,3.88 fold,23 fold
B12,29100 cts/min,35900 cts/min,17000 cts/min,2.6 fold,16 fold,8.69 fold
B13,2360 cts/min,4420 cts/min,1670 cts/min,3.49 fold,1.68 fold,1.33 fold
B14,31400 cts/min,32700 cts/min,19000 cts/min,9.2 fold,11.8 fold,4.79 fold

# Target: T1, orthogonal hCD122 receptor (hoRb), …
# Test: cell-based or functional assay
# Remark: another data set of the same source
Binder,NKL Ortho Proliferation Signal 1:2,NKL Ortho Proliferation Signal 1:10,NKL Ortho Proliferation Signal 1:50,Relative Proliferation Fold Change NKL 1:2,Relative Proliferation Fold Change NKL 1:10,Relative Proliferation Fold Change NKL 1:50
B1,6510,7930,6980,0.54 fold,0.56 fold,0.53 fold
B2,6560,8210,7200,0.44 fold,0.53 fold,0.49 fold
B3,4640,7560,6380,0.39 fold,0.49 fold,0.46 fold
B4,50300,45100,20900,4.04 fold,2.83 fold,1.39 fold
B5,10600,8600,6800,1.01 fold,0.68 fold,0.55 fold
B6,5740,7220,6050,0.45 fold,0.49 fold,0.45 fold
B7,40000,35600,16700,3.78 fold,2.5 fold,1.25 fold
B8,13900,9670,6650,1.18 fold,0.75 fold,0.57 fold
B9,9460,7880,6310,0.71 fold,0.57 fold,0.5 fold
B10,5980,6750,5180,0.44 fold,0.47 fold,0.41 fold
B11,71200,67600,38900,5.12 fold,4.36 fold,2.63 fold
B12,50400,57900,27800,3.46 fold,3.31 fold,1.75 fold
B13,20900,14200,9760,1.32 fold,0.84 fold,0.62 fold
B14,46800,39700,18300,2.94 fold,2.19 fold,1.09 fold
